Reference: article doi:10.1101/850305 (bioRxiv, 2019)

Target: the molecule itself
Experiment: crystal structure

B1: E. coli LpxA UDP-N-acetylglucosamine acyltransferase (enzyme, UniProt P0A722 1-262, looked up)
chain: MIDKSAFVHPTAIVEEGASIGANAHIGPFCIVGPHVEIGEGTVLKSHVVVNGHTKIGRDNEIYQFASIGEVNQDLKYAGEPTRVEIGDRNRIRESVTIHRGTVQGGGLTKVGSDNLLMINAHIAHDCTVGNRCILANNATLAGHVSVDDFAIIGGMTAVHQFCIIGAHVMVGGCSGVAQDVPPYVIAQGNHATPFGVNIEGLKRRGFSREAITAIRNAYKLIYRSGKTLDEVKPEIAELAETYPEVKAFTDFFARSTRGLIR
stoichiometry N: 3
